Bridge positions count the residues as written; N and C are the ends. Ends that are not written are not given here. COCH2 = acetyl group that carries the bridge
target: T1, Recombinant Human FGFR2 alpha (IIIc) Fc Chimera Protein, CF (R&D systems, 712-FR-050) (human, UniProt P21802 22-377); experiment: ELISA on plate-bound FGFR2-Fc
T1 construct: bought; not shown: Fc part of the chimera
Method in brief: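 Peptide binding scored by category from dose-response of background-corrected luminescence (FGFR-coated minus uncoated wells). Detection via anti-Myc antibody (2 h, room temperature) after 3 h peptide incubation on wells coated with 5 ng FGFR2 alpha (IIIc)-Fc.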

T1 sequence (P21802 22-377, change not shown): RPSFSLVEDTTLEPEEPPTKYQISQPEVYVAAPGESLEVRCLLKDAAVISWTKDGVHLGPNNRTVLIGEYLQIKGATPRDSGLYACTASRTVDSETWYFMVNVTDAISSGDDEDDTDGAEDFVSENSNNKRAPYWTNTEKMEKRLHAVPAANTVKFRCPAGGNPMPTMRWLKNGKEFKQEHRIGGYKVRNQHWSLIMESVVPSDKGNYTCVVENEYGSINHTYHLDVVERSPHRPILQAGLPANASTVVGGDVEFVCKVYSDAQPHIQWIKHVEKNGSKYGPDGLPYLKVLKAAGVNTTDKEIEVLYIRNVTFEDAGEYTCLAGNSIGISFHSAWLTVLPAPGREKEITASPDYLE

| Binder | ELISA luminescence signal at 10 nmol/L peptide, relative to SEQ ID NO: 47 (=1) |
| --- | --- |
| YCEENYLDPEQIQYFIYFK(COCH2)Y (thioether 2-19 (inferred)) [cyclic peptide SEQ ID NO: 253] | 0.1 to 0.5 ratio |
| YCEENYLDPEQYVYFIYFK(COCH2)Y (thioether 2-19 (inferred)) [cyclic peptide SEQ ID NO: 260] | ≥ 0.7 ratio |
| YCEENYLDIEQYQYFIYFK(COCH2)Y (thioether 2-19 (inferred)) [cyclic peptide SEQ ID NO: 223] | ≥ 0.7 ratio |
| YCEENYLDEEQYQYFIYFK(COCH2)Y (thioether 2-19 (inferred)) [cyclic peptide SEQ ID NO: 233] | ≥ 0.7 ratio |
| YCEENYLEPEQYQYFIYFK(COCH2)Y (thioether 2-19 (inferred)) [cyclic peptide SEQ ID NO: 218] | ≥ 0.7 ratio |
| YCEENYLDPEQFQYFIYFK(COCH2)Y (thioether 2-19 (inferred)) [cyclic peptide SEQ ID NO: 254] | ≥ 0.7 ratio |
| YCEENYLDPGQYQYFIYFK(COCH2)Y (thioether 2-19 (inferred)) [cyclic peptide SEQ ID NO: 236] | 0.1 to 0.5 ratio |
| YCEENYLDPTQYQYFIYFK(COCH2)Y (thioether 2-19 (inferred)) [cyclic peptide SEQ ID NO: 247] | ≥ 0.7 ratio |
| YCEENYLDPFQYQYFIYFK(COCH2)Y (thioether 2-19 (inferred)) [cyclic peptide SEQ ID NO: 241] | ≥ 0.7 ratio |
| YCEENYLDPSQYQYFIYFK(COCH2)Y (thioether 2-19 (inferred)) [cyclic peptide SEQ ID NO: 246] | ≥ 0.7 ratio |
| YCEENYLHPEQYQYFIYFK(COCH2)Y (thioether 2-19 (inferred)) [cyclic peptide SEQ ID NO: 220] | ≥ 0.7 ratio |
| YCEENYLDDEQYQYFIYFK(COCH2)Y (thioether 2-19 (inferred)) [cyclic peptide SEQ ID NO: 232] | ≥ 0.7 ratio |
| YCEENYLDPNQYQYFIYFK(COCH2)Y (thioether 2-19 (inferred)) [cyclic peptide SEQ ID NO: 244] | ≥ 0.7 ratio |
| YCEENYLDVEQYQYFIYFK(COCH2)Y (thioether 2-19 (inferred)) [cyclic peptide SEQ ID NO: 224] | ≥ 0.7 ratio |
| YCEENYLDQEQYQYFIYFK(COCH2)Y (thioether 2-19 (inferred)) [cyclic peptide SEQ ID NO: 229] | ≥ 0.7 ratio |
| YCEENYLRPEQYQYFIYFK(COCH2)Y (thioether 2-19 (inferred)) [cyclic peptide SEQ ID NO: 219] | 0.1 to 0.5 ratio |
| YCEENYLDPQQYQYFIYFK(COCH2)Y (thioether 2-19 (inferred)) [cyclic peptide SEQ ID NO: 245] | ≥ 0.7 ratio |
| YCEENYLDPDQYQYFIYFK(COCH2)Y (thioether 2-19 (inferred)) [cyclic peptide SEQ ID NO: 248] | ≥ 0.7 ratio |
| YCEENYLDTEQYQYFIYFK(COCH2)Y (thioether 2-19 (inferred)) [cyclic peptide SEQ ID NO: 231] | ≥ 0.7 ratio |
| YCEENYLDSEQYQYFIYFK(COCH2)Y (thioether 2-19 (inferred)) [cyclic peptide SEQ ID NO: 230] | ≥ 0.7 ratio |
| YCEENYLDPIQYQYFIYFK(COCH2)Y (thioether 2-19 (inferred)) [cyclic peptide SEQ ID NO: 239] | ≥ 0.7 ratio |
| YCEENYLDPHQYQYFIYFK(COCH2)Y (thioether 2-19 (inferred)) [cyclic peptide SEQ ID NO: 250] | ≥ 0.7 ratio |
| YCEENYLDYEQYQYFIYFK(COCH2)Y (thioether 2-19 (inferred)) [cyclic peptide SEQ ID NO: 226] | ≥ 0.7 ratio |
| YCEENYLDPEQYIYFIYFK(COCH2)Y (thioether 2-19 (inferred)) [cyclic peptide SEQ ID NO: 259] | ≥ 0.7 ratio |
| YCEENYLDPPQYQYFIYFK(COCH2)Y (thioether 2-19 (inferred)) [cyclic peptide SEQ ID NO: 237] | ≥ 0.7 ratio |
| YCEENYLDPEQLQYFIYFK(COCH2)Y (thioether 2-19 (inferred)) [cyclic peptide SEQ ID NO: 252] | 0.1 to 0.5 ratio |

More lines, now with the values ahead:

| ELISA luminescence signal at 10 nmol/L peptide, relative to SEQ ID NO: 47 (=1) | Binder |
| --- | --- |
| ≥ 0.7 ratio | YCEENYLTPEQYQYFIYFK(COCH2)Y (thioether 2-19 (inferred)) [cyclic peptide SEQ ID NO: 217] |
| ≥ 0.7 ratio | YCEENYLDGEQYQYFIYFK(COCH2)Y (thioether 2-19 (inferred)) [cyclic peptide SEQ ID NO: 221] |
| ≥ 0.7 ratio | YCEENYLDPYQYQYFIYFK(COCH2)Y (thioether 2-19 (inferred)) [cyclic peptide SEQ ID NO: 242] |
| ≥ 0.7 ratio | YCEENYLDPEQHQYFIYFK(COCH2)Y (thioether 2-19 (inferred)) [cyclic peptide SEQ ID NO: 256] |
| ≥ 0.7 ratio | YCEENYLDPEQYGYFIYFK(COCH2)Y (thioether 2-19 (inferred)) [cyclic peptide SEQ ID NO: 257] |
| ≥ 0.7 ratio | YCEENYLDHEQYQYFIYFK(COCH2)Y (thioether 2-19 (inferred)) [cyclic peptide SEQ ID NO: 235] |
| 0.1 to 0.5 ratio | YCEENYLDPEHYQYFIYFK(COCH2)Y (thioether 2-19 (inferred)) [cyclic peptide SEQ ID NO: 251] |
| ≥ 0.7 ratio | YCEENYLDREQYQYFIYFK(COCH2)Y (thioether 2-19 (inferred)) [cyclic peptide SEQ ID NO: 234] |
| ≥ 0.7 ratio | YCEENYLDLEQYQYFIYFK(COCH2)Y (thioether 2-19 (inferred)) [cyclic peptide SEQ ID NO: 222] |
| ≥ 0.7 ratio | YCEENYLDWEQYQYFIYFK(COCH2)Y (thioether 2-19 (inferred)) [cyclic peptide SEQ ID NO: 227] |
| ≥ 0.7 ratio | YCEENYLDPEQYLYFIYFK(COCH2)Y (thioether 2-19 (inferred)) [cyclic peptide SEQ ID NO: 258] |
| ≥ 0.7 ratio | YCEENYLDPWQYQYFIYFK(COCH2)Y (thioether 2-19 (inferred)) [cyclic peptide SEQ ID NO: 243] |
| ≥ 0.7 ratio | YCEENYLDFEQYQYFIYFK(COCH2)Y (thioether 2-19 (inferred)) [cyclic peptide SEQ ID NO: 225] |
| ≥ 0.7 ratio | YCEENYLDPVQYQYFIYFK(COCH2)Y (thioether 2-19 (inferred)) [cyclic peptide SEQ ID NO: 240] |
| ≥ 0.7 ratio | YCEENYLDPLQYQYFIYFK(COCH2)Y (thioether 2-19 (inferred)) [cyclic peptide SEQ ID NO: 238] |
| ≥ 0.7 ratio | YCEENYLDPEQWQYFIYFK(COCH2)Y (thioether 2-19 (inferred)) [cyclic peptide SEQ ID NO: 255] |
| ≥ 0.7 ratio | YCEENYLDNEQYQYFIYFK(COCH2)Y (thioether 2-19 (inferred)) [cyclic peptide SEQ ID NO: 228] |
| ≥ 0.7 ratio | YCEENYLDPRQYQYFIYFK(COCH2)Y (thioether 2-19 (inferred)) [cyclic peptide SEQ ID NO: 249] |

Source: patent US20260008815A1, “CYCLIC PEPTIDE OR SALT THEREOF, AND USES THEREOF” (FUJIFILM Corporation, priority 2023, published 2026)
